Assay results as given in patent US8440804B2, “Polypeptides having modulatory effects on cells” (Ecole Normale Superieure de Lyon, priority 2006, dated 2013).

Legend:
[1] = system: purified CNA (calcineurin); test: In vitro calcineurin phosphatase assay (pNPP substrate); format: biochemical
Description: (A) In vitro calcineurin phosphatase assay. Dephosphorylation of the model substrate pNPP by purified calcineurin was measured in presence of various amounts of purified calmodulin (CaM), GST-R5G42 or GST-R7G44 fusion proteins.
The inventors next explored the ability of R5G42 to modulate the enzymatic activity of its target protein. To this end, they first performed an in vitro phosphatase assay using purified CNA and para-nitrophenylphosphate (pNPP) as a substrate.
GST-aptamer fusion proteins were first produced as described above. For this experiment, GST-aptamer fusion proteins were eluted from glutathion sepharose beads using 20 mM reduced L-glutathione (Sigma), and the eluates were dialyzed overnight against a phosphatase buffer (50 mM Tris-HCl pH7.4, 0.1 mM CaCl2). The phosphatase activity of calcineurin was measured using pNPP (Sigma) as substrate, in a final volume of 100 μl. The sample solution contained 50 mM Tris-HCl (pH7.4), 0.1 mM CaCl2, 1 mM NiSO4, 0.15 mg/ml BSA (Sigma), 0.1 μM calcineurin (Upstate). Purified calmodulin (Upstate) and GST-aptamer fusion proteins were added at different concentrations (see figure legend). After a 15 min pre-incubation at 37° C., the reactions were started by adding 4.1 mM pNPP and the mixtures were incubated at 37° C. for 20 min. The nitrophenylate product was measured at 405 nm using an Envision plate reader (Perkin Elmer). The background level that was determined was subtracted using a mixture lacking calcineurin.

[2] = system: purified CNA (bovine brain purified calcineurin); test: In vitro binding assay (affinity capture on glutathione-sepharose, western blot); conditions: glutathione-sepharose beads, anti-calcineurin western blot
Description: (C) Affinity capture assay.
The inventors performed two yeast two-hybrid screening experiments against a LexA-R5G42 bait protein, using a human testis and a human fcetal brain cDNA library. They obtained 29 and 42 reconfirmed clones, respectively. […] The inventors thus retained two candidates. The highest occurring clone, from both libraries, corresponded to the NS5A-TP2 protein, recently discovered through a systematic search for genes that are transactivated by the non-structural NS5A protein from hepatitis C virus (22). No biological knowledge is currently available for this protein. The other remaining target candidate was calcineurin A (CNA), for which two different isoforms (beta and gamma) were selected from the testes library (see FIG. 3A). To confirm the interaction between R5G42 and CNA, the inventors performed an in vitro binding assay between recombinant purified GST-aptamer fusion proteins, coupled to a glutathione-sepharose matrix, and purified CNA.
In Vitro Binding Assay pVRV6-aptamer plasmids were first digested with EcoRI and XhoI and the fragments were ligated into EcoRI/XhoI-cut pGEX4T1. GST-aptamer fusions were expressed in a BL-21(DE3) E. coli strain. […] The samples were loaded onto a SDS-PAGE, transferred to nitrocellulose membrane, and calcineurin was detected by western-blotting using an anti-calcineurin pan A antibody (1/1000, Chemicon International). […]

Molecule	activation of CNA phosphatase activity ([1]; addition of purified calmodulin, pNPP)	capture of purified CNA by GST-aptamer solid phase [2]	CNA phosphatase activity in absence of CaM ([1]; high concentrations of GST-aptamer, pNPP, 0.1 μM calcineurin)	effect on CaM-activated CNA phosphatase activity ([1]; in presence of CaM (not shown))
calmodulin [CaM, reference compound]	required to activate CNA			
GST-R5G42: recombinant purified GST-aptamer fusion protein of R5G42 (protein, left off: a dimerising Fc or GST) MVKQIESKTAFQEALDAAGDKLVVVDFSATWCGPSAVTFAVCALGPCKMIKPFFHSLSEKYSNVIFLEVDVDDCQDVASECEVKCMPTFQFFKKGQKVGEFSGANKEKLEATINELV		readily captured CNA	activated CNA phosphatase activity in absence of CaM, to a level comparable to that observed using CaM	did not result in an inhibition or an exacerbation
